# Tests used:
# [1] = target: human AITR expressed on the cell surface (human) (UniProt Q9Y5U5); test: flow cytometry on iTreg cells, surface AITR
# [2] = target: human AITR expressed on the cell surface (human) (UniProt Q9Y5U5); test: flow cytometry on AITR-5 cells (HEK293 overexpressing human AITR); unstained AITR-5 panel: Q1 0.98
# [3] = target: human AITR expressed on the cell surface (human) (UniProt Q9Y5U5); test: flow cytometry on human iTreg cells; average of TRX518 and MK4166
# human AITR expressed on the cell surface (human), sequence (Q9Y5U5 26-241): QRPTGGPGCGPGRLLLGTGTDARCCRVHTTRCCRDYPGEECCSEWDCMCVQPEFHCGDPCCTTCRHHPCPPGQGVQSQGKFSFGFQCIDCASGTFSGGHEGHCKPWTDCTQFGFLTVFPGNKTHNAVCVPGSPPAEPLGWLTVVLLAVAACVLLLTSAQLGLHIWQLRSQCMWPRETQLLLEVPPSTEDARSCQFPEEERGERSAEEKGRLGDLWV
"% of iTreg cells in the upper right quadrant (CD4+, antibody-positive) [1] [%]",% of AITR-5 cells in Q1 (antibody-positive) [2] [%],% of iTreg cells recognized as positive for human AITR [3] [%],Substance
0.79,1.95,,Isotype control (antibody)
17.1,,19,MK4166 (Merck's anti-GITR antibody)
20.8,,19,TRX518 (antibody)

# Reference: patent US20190330358A1
